The values that follow come from publication doi:10.1101/2024.01.24.577054 (bioRxiv, 2024).

This series concerns the molecule itself. The series can be described thus: FRET or BRET.

B1: BmrA, homodimeric multi-drug resistance ABC exporter from B. subtilis (His-C-ter-BmrA), labelled with sulfo-Cy3/sulfo-Cy5 (natural protein, UniProt O06967 1-589, looked up)
chain: MPTKKQKSKSKLKPFFALVRRTNPSYGKLAFALALSVVTTLVSLLIPLLTKQLVDGFSMSNLSGTQIGLIALVFFVQAGLSAYATYALNYNGQKIISGLRELLWKKLIKLPVSYFDTNASGETVSRVTNDTMVVKELITTHISGFITGIISVIGSLTILFIMNWKLTLLVLVVVPLAALILVPIGRKMFSISRETQDETARFTGLLNQILPEIRLVKASNAEDVEYGRGKMGISSLFKLGVREAKVQSLVGPLISLVLMAALVAVIGYGGMQVSSGELTAGALVAFILYLFQIIMPMGQITTFFTQLQKSIGATERMIEILAEEEEDTVTGKQIENAHLPIQLDRVSFGYKPDQLILKEVSAVIEAGKVTAIVGPSGGGKTTLFKLLERFYSPTAGTIRLGDEPVDTYSLESWREHIGYVSQESPLMSGTIRENICYGLERDVTDAEIEKAAEMAYALNFIKELPNQFDTEVGERGIMLSGGQRQRIAIARALLRNPSILMLDEATSSLDSQSEKSVQQALEVLMEGRTTIVIAHRLSTVVDADQLLFVEKGEITGRGTHHELMASHGLYRDFAEQQLKMNADLENKAG
modifications: sulfo-Cy3 or sulfo-Cy5 maleimide dye on C436 (the sole Cys residue of each monomer)
Turning to B1, the binding result is “binds”.
